± gives the standard deviation of the averaged measurements.
Experiment: total protein half-life in vivo (active degradation + dilution); higher = more stable protein
[1] = E. coli NCM3722 delta-clpP delta-lon delta-hslV, growth: N-lim chemostat, doubling time 6 h
[2] = E. coli NCM3722 delta-clpP, growth: N-lim chemostat, doubling time 6 h
[3] = E. coli NCM3722 delta-hslV, growth: N-lim chemostat, doubling time 6 h
[4] = E. coli NCM3722 delta-lon, growth: N-lim chemostat, doubling time 6 h
[5] = E. coli NCM3722 delta-smpB, growth: N-lim chemostat, doubling time 6 h
[6] = wild type E. coli NCM3722, growth: C-lim chemostat, doubling time 3 h
[7] = wild type E. coli NCM3722, growth: C-lim chemostat, doubling time 6 h
[8] = wild type E. coli NCM3722, growth: C-lim chemostat, doubling time 12 h
[9] = wild type E. coli NCM3722, growth: N-lim chemostat, doubling time 6 h
[10] = wild type E. coli NCM3722, growth: N-lim chemostat, doubling time 12 h
[11] = wild type E. coli NCM3722, growth: P-lim chemostat, doubling time 6 h
[12] = wild type E. coli NCM3722, growth: P-lim chemostat, doubling time 12 h

| Sequence | total protein half-life in vivo [1] [h] | total protein half-life in vivo [2] [h] | total protein half-life in vivo [3] [h] | total protein half-life in vivo [4] [h] | total protein half-life in vivo [5] [h] | total protein half-life in vivo [6] [h] | total protein half-life in vivo [7] [h] | total protein half-life in vivo [8] [h] | total protein half-life in vivo [9] [h] | total protein half-life in vivo [10] [h] | total protein half-life in vivo [11] [h] | total protein half-life in vivo [12] [h] |
| --- | --- | --- | --- | --- | --- | --- | --- | --- | --- | --- | --- | --- |
| MSLSRRQFIQASGIALCAGAVPLKASAAGQQQPLPVPPLLESRRGQPLFMTVQRAHWSFTPGTRASVWGINGRYLGPTIRVWKGDDVKLIYSNRLTENVSMTVAGLQVPGPLMGGPARMMSPNADWAPVLPIRQNAATLWYHANTPNRTAQQVYNGLAGMWLVEDEVSKSLPIPNHYGVDDFPVIIQDKRLDNFGTPEYNEPGSGGFVGDTLLVNGVQSPYVEVSRGWVRLRLLNASNSRRYQLQMNDGRPLHVISGDQGFLPAPVSVKQLSLAPGERREILVDMSNGDEVSITCGEAASIVDRIRGFFEPSSILVSTLVLTLRPTGLLPLVTDSLPMRLLPTEIMAGSPIRSRDISLGDDPGINGQLWDVNRIDVTAQQGTWERWTVRADEPQAFHIEGVMFQIRNVNGAMPFPEDRGWKDTVWVDGQVELLVYFGQPSWAHFPFYFNSQTLEMADRGSIGQLLVNPVP | 6.39 ± 0.28 | 6.3 ± 0.19 | 6.17 ± 0.57 | 6.21 ± 0.34 | 6.12 ± 0.66 | 3.28 ± 0.037 | 6.047 ± 0.037 | 11.19 ± 0.06 | 6.13 ± 0.41 | 13.5 ± 0.45 | 5.88 ± 0.35 | 12.5 ± 0.35 |
| MLKPEMIEKLNEQMNLELYSSLLYQQMSAWCSYHTFEGAAAFLRRHAQEEMTHMQRLFDYLTDTGNLPRINTVESPFAEYSSLDELFQETYKHEQLITQKINELAHAAMTNQDYPTFNFLQWYVSEQHEEEKLFKSIIDKLSLAGKSGEGLYFIDKELSTLDTQN [P0A998] | 5.44 ± 1.7 | 3.41 ± 0.55 | 3.94 ± 1.3 | 4.12 ± 0.86 | 3.38 ± 1.6 |  | 5.8 ± 0.56 |  | 3.33 ± 0.25 | 4.479 ± 0.025 | 4.92 ± 0.45 | 10.6 ± 0.44 |
| MKLRWFAFLIVLLAGCSSKHDYTNPPWNAKVPVQRAMQWMPISQKAGAAWGVDPQLITAIIAIESGGNPNAVSKSNAIGLMQLKASTSGRDVYRRMGWSGEPTTSELKNPERNISMGAAYLNILETGPLAGIEDPKVLQYALVVSYANGAGALLRTFSSDRKKAISKINDLDADEFLEHVARNHPAPQAPRYIYKLEQALDAM [P0C960] |  | 4.98 ± 0.62 | 3.8 ± 0.54 | 3.57 ± 0.47 | 2.72 ± 0.08 | 1.97 ± 0.14 | 2.98 ± 0.34 | 6.46 ± 0.21 | 2.84 ± 0.17 | 3.2 | 4 ± 0.3 | 7.81 ± 0.18 |
| MSAIDCIITAAGLSSRMGQWKMMLPWEQGTILDTSIKNALQFCSRIILVTGYRGNELHERYANQSNITIIHNPDYAQGLLTSVKAAVPAVQTEHCFLTHGDMPTLTIDIFRKIWSLRNDGAILPLHNGIPGHPILVSKPCLMQAIQRPNVTNMRQALLMGDHYSVEIENAEIILDIDTPDDFITAKERYTEI | 4.34 | 3 ± 0.059 |  |  | 1.3 |  | 2.39 ± 0.048 | 3.15 ± 0.1 |  |  |  |  |
| MNKTLIAAAVAGIVLLASNAQAQTVPEGYQLQQVLMMSRHNLRAPLANNGSVLEQSTPNKWPEWDVPGGQLTTKGGVLEVYMGHYMREWLAEQGMVKSGECPPPYTVYAYANSLQRTVATAQFFITGAFPGCDIPVHHQEKMGTMDPTFNPVITDDSAAFSEQAVAAMEKELSKLQLTDSYQLLEKIVNYKDSPACKEKQQCSLVDGKNTFSAKYQQEPGVSGPLKVGNSLVDAFTLQYYEGFPMDQVAWGEIKSDQQWKVLSKLKNGYQDSLFTSPEVARNVAKPLVSYIDKALVTDRTSAPKITVLVGHDSNIASLLTALDFKPYQLHDQNERTPIGGKIVFQRWHDSKANRDLMKIEYVYQSAEQLRNADALTLQAPAQRVTLELSGCPIDADGFCPMDKFDSVLNEAVK | 5.71 ± 0.47 |  | 6.81 ± 0.17 | 6.9 ± 0.04 | 5.96 ± 0.12 | 3.51 ± 0.45 | 6.07 ± 0.17 | 12 ± 1.7 | 6.05 ± 0.63 | 11.1 ± 1.5 | 6.4 ± 1.7 | 12.3 ± 1.5 |
| MFGKGGLGNLMKQAQQMQEKMQKMQEEIAQLEVTGESGAGLVKVTINGAHNCRRVEIDPSLLEDDKEMLEDLVAAAFNDAARRIEETQKEKMASVSSGMQLPPGFKMPF [P0A8B5] | 6.29 ± 0.61 | 4.38 ± 0.044 | 3.59 ± 0.49 | 4.57 ± 0.16 | 3.28 ± 0.64 | 2.68 ± 0.07 | 4.44 ± 0.19 | 7.56 ± 0.1 | 3.02 ± 0.071 | 5.05 ± 0.83 | 4.24 ± 0.68 | 9.46 ± 0.42 |
